Article PMC10977726 (PLOS ONE, 2024)

T1: biotin-Ly6E-rat IgG2b Fc (human | rat, biotin)
T1 chain: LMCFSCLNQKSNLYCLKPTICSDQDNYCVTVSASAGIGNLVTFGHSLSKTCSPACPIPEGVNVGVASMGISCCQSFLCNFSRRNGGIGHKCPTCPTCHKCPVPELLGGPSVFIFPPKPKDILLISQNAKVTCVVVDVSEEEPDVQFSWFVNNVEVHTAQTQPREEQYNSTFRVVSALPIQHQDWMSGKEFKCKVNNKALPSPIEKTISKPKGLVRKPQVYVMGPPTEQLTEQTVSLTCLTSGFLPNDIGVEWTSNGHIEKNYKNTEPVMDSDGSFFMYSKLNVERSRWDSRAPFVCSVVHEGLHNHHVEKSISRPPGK


What was measured:
Settings in all cases: both partners purified
[1] = biological target: T2, human IgG Fc (Biotin-SP-ChromPure Human IgG, Fc fragment) (human, biotin (Biotin-SP)); assay: SPR; […]; Biacore S200, […] (PBS with 0.05% Tween 20, pH 7.4); […]
[2] = biological target: T2, human IgG Fc (Biotin-SP-ChromPure Human …); assay: ELISA; […], room temperature; […]
[3] = biological target: T2, human IgG Fc (Biotin-SP-ChromPure Human …); assay: SPR
biotin-PDGF-bb = biological target: T3, biotin-PDGF-bb (human, UniProt P01127 82-190, biotin); assay: SPR; […]; Biacore S200, […] (PBS with 0.05% Tween 20, pH 7.4); […]
T3 construct: also called human platelet-derived growth factor

biotin-Ly6E-rat IgG2b Fc = biological target: T1, biotin-Ly6E-rat IgG2b Fc; assay: as above

T3 sequence (P01127 82-190): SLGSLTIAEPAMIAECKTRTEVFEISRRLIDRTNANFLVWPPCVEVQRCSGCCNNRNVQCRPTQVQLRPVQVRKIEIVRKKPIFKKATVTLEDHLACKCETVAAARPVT

Binder | Kd [1] | IC50 [2] | other results
CKGKGAKCSRLMYDCCTGSCRSGKC [WT CON] | > 20 µM | – | –
GCQAHYWYRVWFCKQDSDCLAGCVCGPNGFCG (designed binder) [Ig-EET-1] | 0.228 µM | 0.447 µM | –
GCGYWYMQWFCKQDSDCLAGCVCRPKPECG (designed binder) [Ig-EET-4] | 0.948 µM | 0.823 µM | –
GECKGKGAKCSSISIHDAHCCTGSCRSGKC (designed binder) [recombinant Ig-CON-5 after TEV protease digestion] | – | – | Kd [3]: 0.01 µM
VGECVRGRCSKISCCSQFGYCGKGPKYCG (designed binder) [Ig-AMP-1] | 0.243 µM | 0.055 µM | –
GCAFEGESCNVQFYPCCVSMKLMCIPGNPDGTCYYL (designed binder) [P-AST-3] | – | – | Kd (biotin-PDGF-bb): > 50 µM
GCNMYSGPWRYFCKQDSDCLAGCVCGPNGFCG (designed binder) [L-EET-5] | – | – | Kd (biotin-Ly6E-rat IgG2b Fc): > 20 µM
GCAIYHMGWMFQCKQDSDCLAGCVCGPNGFCG (designed binder) [L-EET-7] | – | – | Kd (biotin-Ly6E-rat IgG2b Fc): 0.022 µM
GCQIYQSQWSYLCKQDSDCLAGCVCGPNGFCG (designed binder) [L-EET-8] | – | – | Kd (biotin-Ly6E-rat IgG2b Fc): > 20 µM
VGECVRGRCSAISCCSQFGYCGKGPKYCG (designed binder) [Ig-AMP-2] | – | 0.041 µM | –
VGECVRGRCSQISCCSQFGYCGKGPKYCG (designed binder) [Ig-AMP-3] | 0.353 µM | 0.062 µM | –
VGECVRGRCSSISCCSQFGYCGKGPKYCG (designed binder) [Ig-AMP-4] | > 1 µM | 0.151 µM | –
